Source: PMC8499471

What was measured:
[1] = molecular target: Flag-Kr-h1^S154D (Locusta migratoria)
[2] = molecular target: Flag-Kr-h1 (Krüppel-homolog 1 of Locusta migratoria, wildtype, methoprene-exposed) (Locusta migratoria)
[3] = molecular target: Flag-Kr-h1^S154D (Locusta migratoria); remark: listed apart in the source

Substance | E93 reporter activity (dual luciferase, pGL4.10-4×E93 -623 to -606) in S2 cells, co-expression of Flag-CtBP and Flag-Kr-h1^S154D [1] [% reduction] | E93 reporter activity (dual luciferase, pGL4.10-4×E93 -623 to -606) in S2 cells with 10 uM methoprene, co-expression of Flag-CtBP and Flag-Kr-h1 [2] [% reduction] | RL36 reporter activity (dual luciferase, pGL4.10-4×RL36 -1647 to -1632) in S2 cells, co-expression of Flag-CBP and Flag-Kr-h1^S154D (fold increase) [3]
Flag-CtBP (C-terminal binding protein of Locusta migratoria) (natural protein) | 50 | 47 | –
Flag-CBP (CREB-binding protein of Locusta migratoria) (natural protein) | – | – | 1.7
